Biological target: IL-2Rαβ (UniProt P01589)
Experiment: in vitro binding affinity against IL-2 as standard; method presumably the SPR of Example 2 (Biacore T-100, receptor-Fc captured, EC50 from RU against concentration)

Sequence of UniProt P01589 (P01589 22-213 limits assumed): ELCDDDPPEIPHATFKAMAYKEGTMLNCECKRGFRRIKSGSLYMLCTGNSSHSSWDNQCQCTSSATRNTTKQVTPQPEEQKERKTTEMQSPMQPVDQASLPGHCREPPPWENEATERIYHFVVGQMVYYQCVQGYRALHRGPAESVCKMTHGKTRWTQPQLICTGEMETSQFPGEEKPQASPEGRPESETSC

fold decrease in affinity relative to IL-2: 60 fold
Substance: RSLAIL-2 (rIL-2 with the aldesleukin sequence, releasably PEGylated with mPEG2-C2-Fmoc-20kD-NHS) (from UniProt P60568 22-153) (ligand)

Reference: patent US20200016206A1
